Experimental data: the Human Domainome abundance scans (Beltran et al. 2025)

B1: Retinoic acid receptor RXR-alpha, residues 132 to 208; numbered along this chain, P19793 (parent)
chain: KHICAICGDRSSGKHYGVYSCEGCKGFFKRTVRKDLTYTCRDNKDCLIDKRQRNRCQYCRYQKCLAMGMKREAVQEE
B2: Proto-oncogene vav, residues 782 to 842; numbered along this chain, P15498 (parent)
chain: KYFGTAKARYDFCARDRSELSLKEGDIIKILNKKGQQGWWRGEIYGRVGWFPANYVEEDYS

Variants of: B1
Test: abundance fitness (aPCA) (normalised: wild type 0, dead -1); higher = more abundant; growth selection in yeast, the domain comes from the species named
Conditions: Homo sapiens

Abundance fitness of substitutions, site by site:
Y16: C -0.013 | F 0.06 | A 0.011 | D 0.046 | E 0.078
K1: A -0.531 | W -0.341 | V -0.206 | N -0.024 | H -0.222 | M -0.067 | T -0.435 | C -0.185 | L -0.333 | Y -0.119 | E -0.117 | D -0.02 | S -0.299 | R -0.286 | F -0.217
D9: F -0.321 | L -0.708 | A -0.091 | H -0.214 | R -0.243 | S -0.137 | K 0.03 | V -0.424 | N -0.05 | E 0.098 | C -0.898 | M -0.354 | T -0.089 | Q 0.033 | W -0.141 | P -0.662 | G -0.166 | I -0.455
R10: Y -0.028 | K -0.025 | H -0.051 | A -0.139 | S -0.046 | I -0.021 | M -0.099 | T -0.024 | G -0.072 | C -0.053 | W -0.044 | L -0.131 | D -0.047 | N -0.024 | V -0.199 | F -0.064 | E -0.059
C7: H -0.942 | D -0.357 | V -1.11 | I -1.24 | E -0.769 | M -0.867 | T -0.981 | S -0.944 | W -1.22 | Q -0.988 | A -0.919 | F -1.19 | N -0.728 | L -1.23 | P -0.961 | K -1.29 | Y -0.917 | G -0.921
G13: V -0.067 | M -0.042 | C -0.707 | H 0.025 | S -0.121 | W -0.659 | I -0.367 | L -0.082 | K 0.084 | P -0.118 | D 0.019 | Q -0.009 | E 0.059 | Y 0.017 | F -0.114 | A 0.02 | T -0.005 | R -0.024 | N 0.048
S11: R -0.162 | I -0.113 | A -0.054 | D -0.014 | P 0.072 | G -0.116 | M -0.111 | W -0.066 | V -0.179 | E -0.072 | C -0.015 | Y -0.096 | Q -0.101 | F -0.087 | L -0.142 | H -0.019 | N -0.084 | T -0.089
S12: C -0.657 | T 0.114 | L 0.019 | N 0.091 | Q 0.104 | F -0.112 | A 0.044 | W -0.072 | R 0.123 | H -0.131 | E 0.101 | K 0.137 | D 0.001 | G 0.072 | I -0.196 | P 0.062 | V 0.018
I3: A -0.229 | R -0.218 | D -0.059 | Y -0.058 | S -0.127 | L 0.009 | H 0.017 | E -0.428 | K -0.144 | W -0.404 | Q -0.211 | T -0.008 | F -0.06 | V -0.3 | C 0.022 | G -0.28 | N -0.001
C4: P -0.99 | N -0.936 | A -0.895 | R -1.02 | T -0.757 | Y -0.875 | M -1.08 | V -1.03 | G -0.914 | E -0.866 | W -1.3 | K -1.23 | L -0.999 | D -0.807 | F -0.955 | S -1.03 | Q -0.614 | H -0.512
H15: Q -0.007 | A -0.13 | S -0.196 | K -0.138 | F -0.064 | I -0.181 | Y -0.05 | V -0.098 | D -0.08 | M -0.234 | T -0.24 | P -0.034 | G -0.056 | R -0.039 | E -0.065 | W -0.078 | C -0.081 | L -0.138
K14: A -0.027 | W -0.013 | R -0.115 | I -0.112 | G -0.004 | C -0.027 | H -0.414 | L -0.094 | N -0.028 | D 0.018 | S -0.04 | Y -0.218 | P -0.004 | E -0.034 | F 0.017 | T -0.039 | V -0.057 | Q 0 | M 0.001
H2: R -0.101 | N -0.001 | S 0.011 | C -0.267 | V -0.142 | Y -0.008 | E 0.055 | D 0.072 | G -0.005 | Q -0.031 | W -0.109 | K 0.096 | I 0.189 | L -0.041 | T -0.026 | M 0.078 | P -0.453
I6: A -0.145 | K -0.881 | Q -0.909 | C 0.008 | H -0.731 | M -0.038 | L -0.124 | R -0.687 | S -0.438 | T -0.064 | D -0.729 | N -0.439 | Y -0.881 | G -0.386
A5: Q 0.036 | I 0.055 | R 0.044 | N -0.022 | G -0.045 | P -0.074 | F 0.171 | S 0.02 | W 0.03 | H 0.044 | L 0.037 | V -0.054 | T 0.045 | E 0.04 | M 0.036 | D 0.016
G8: T 0.016 | V -0.228 | K -0.053 | R -0.125 | P -0.227 | L -0.179 | M -0.07 | H -0.062 | E 0.005 | F 0.006 | D -0.04 | Y -0.044 | W -0.1 | N -0.017 | Q 0.043 | A -0.027 | C -0.027 | S -0.041

Variants of: B2
Test: as above
Conditions: Homo sapiens

Abundance fitness: each site, then its substitutions
E58: Y -0.065 | M -0.216 | P -0.169 | S -0.362 | T -0.129 | N -0.6 | R -0.336 | H -0.533 | W -0.364 | G -0.338 | L -0.225 | A -0.186 | D -0.435 | V -0.117 | F -0.297 | Q -0.19
S61: I -0.2 | K -0.196 | P 0.232 | F -0.28 | H 0.019 | E -0.235 | A -0.073 | G -0.194 | C 0.071 | R -0.011 | W -0.084 | V -0.216 | D -0.208 | L -0.095
E57: T 0.025 | Y -0.106 | W -0.478 | R -0.123 | S -0.059 | Q -0.109 | V -0.001
D59: A -0.188 | H -0.109 | E -0.038 | R -0.285 | Q 0.01 | V -0.009 | Y -0.244 | C -0.125 | L -0.138 | G -0.097 | N 0.052 | T 0.008 | M -0.027 | F -0.015 | W 0.048 | P -0.371
Y60: Q -0.097 | K -0.122 | M 0.009 | P -0.183 | C -0.119 | H 0.027 | V 0.134 | W -0.169 | G -0.039 | F 0.017 | L 0.062 | I -0.024 | R -0.005 | A -0.079 | D 0.106 | E 0.005 | S 0.016
